Measurements taken from US20200207857A1 (SPARX BIOSCIENCE, published 2020).
Residue numbers refer to the chain shown, from its start.

B1: Anti-CLDN 18.2-5C9o (humanized antibody h5C9o) (antibody, V domains shown)
VH: EVQLVESGGGLVQPGGSLRLSCAVSGYTFSMNWVRQAPGKGLEWVAWINMYTGEPTYADDFKGRFTISRDDSKNTLYLQMNSLRAEDTAVYYCARLYNGNSLDYWGQGTLVTVSS
VL: DIQMTQSPSSLSASVGDRVTITCKSSQSLLNSGNQKSYLTWYQQKPGKAPKLLIYWASTLESGVPSRFSGSGSGTDYTLTISSLQPEDFATYYCQNAYSFPFTFGQGTKVEIK
notes: Humanized IgG; The general method joins the variable domains to human IgG1 constant domains; Full chains are not mapped to the name; also called CLDN18.2-h5C9o
B2: Anti-CLDN 18.2-5C9oae (humanized antibody h5C9oae) (antibody, human IgG1, V domains shown)
VH: B1 VH with N98R
VL: B1 VL with S99F
notes: the general method uses human IgG1 constant domains
B3: Anti-CLDN 18.2-5C9oag (humanized antibody h5C9oag) (antibody, human IgG1, V domains shown)
VH: B1 VH with Y97A, N98R, L102I
VL: B1 VL
notes: as for B2
B4: Anti-CLDN 18.2-5C9oai (humanized antibody h5C9oai) (antibody, human IgG1, V domains shown)
VH: B1 VH with Y97A, N98R, L102M
VL: B1 VL
notes: as for B2
B5: Anti-CLDN 18.2-5C9ob (humanized antibody h5C9ob) (antibody, human IgG1, V domains shown)
VH: B1 VH
VL: B1 VL with S99F
notes: the general method uses human IgG1 constant domains; also called CLDN18.2-h5C9ob
B6: humanized anti-Claudin 18.2 antibody h5C9oao (antibody, human IgG1, kappa, V domains shown)
VH: B1 VH with Y97A, N98R, L102M
VL: DIQMTQSPSSLSASVGDRVTITCKSSQSLLNSGNQKSYLTWYQQKPGKAPKLLIYWASTLESGVPSRFSGSGSGTDYTLTISSLQPEDFATYYCQNAYFFPFTFGQGTKVEIKR
B7: h5C9o Fc mutation (antibody, V domains shown)
VH: B1 VH
VL: B6 VL with F99S
B8: humanized anti-Claudin 18.2 antibody h5C9oan (antibody, human IgG1, kappa, V domains shown)
VH: B1 VH with L96S, Y97S, N98R, S101G, L102F
VL: B6 VL
B9: Anti-CLDN 18.2-3B8 (antibody, V domains shown)
VH: EVKLVESGGGLVKPGGSLKLSCAASGFTFSSYAMSWVRQTPEKRLEWVASISSGGSTYYPDSVKGRFTISRDNARNILYLQMSSLRSEDTAMYYCASFGYDVAMDYWGQGTSVTVSS
VL: DVLMTQTPLSLPVSLGDQASISCRSSQSIVHSNGNTYLQWYLQKPGQSPKLLIYKVSNRFSGVPDRFSGSGSGTDFTLKISRVEAEDLGVYYCFQGSHVPFTFGSGTKLEIK
notes: Mouse monoclonal antibody; also called monoclonal antibody 3B8

What was measured:
[1] = molecular target: T1, human Claudin 18.2 (CLDN 18.2) expressed on HEK293 / HEK293T cells (human); assay: cell-based ELISA (InCell Elisa) on fixed HEK293_CLDN18.2 cells, OD450; Kd table under the graph, no unit in the table, unit from the x axis log[antibody] ug/ml
T1 construct: Full-length CLDN18.2 on transiently or stably transfected HEK293/HEK293T cells; also called CLD18.2

[2] = molecular target: T1, human Claudin 18.2 (CLDN 18.2) …; assay: cell-based ELISA (InCell Elisa) on formalin-fixed HEK293_CLDN18.2 cells, OD450; Kd box under the graph, no unit in the box, unit from the x axis log[antibody] nM; the curve on HEK293T cells stays flat at about 0.1
[3] = molecular target: T1, human Claudin 18.2 (CLDN 18.2) …; assay: cell-based ELISA (InCell Elisa) on fixed HEK293_CLDN18.2 cells, y axis RLU; Kd table under the graph, no unit in the table, unit from the x axis log[antibody] ug/ml
[4] = molecular target: T1, human Claudin 18.2 (CLDN 18.2) …; assay: flow cytometry on HEK293 cells transiently transfected with GFP and human CLDN 18.2
Description: After cell detachment using 2 mM EDTA/PBS cells were washed with complete growth medium and plated at approximately 1-5×10⁵ cells/well in U-bottom microtiter plates. Cells were incubated for […]. at 4° C. with monoclonal antibody 3B8 followed by three washing steps with ice cold PBS and finally incubation with Dylight 650-conjugated secondary anti-IgG antibody. Binding was assessed by flow cytometry using a BD, Accuri™ C6 Plus. Fluorescence marker expression was plotted on the horizontal axis against antibody binding on the vertical axis. Mouse antibodies 3B8 were detected to bind specifically to the surface of fluorescence marker expressing HEK293 cells (FIG. 3, cells in Q5-UR).

T1 sequence (chain, as listed by the source limits assumed): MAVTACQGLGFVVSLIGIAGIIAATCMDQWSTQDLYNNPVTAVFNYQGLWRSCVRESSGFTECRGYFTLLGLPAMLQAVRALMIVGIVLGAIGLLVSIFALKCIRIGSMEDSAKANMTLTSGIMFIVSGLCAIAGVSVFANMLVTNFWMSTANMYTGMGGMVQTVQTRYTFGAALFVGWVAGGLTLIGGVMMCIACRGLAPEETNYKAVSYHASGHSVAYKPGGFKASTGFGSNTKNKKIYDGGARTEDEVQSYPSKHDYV

Row | Binder | Kd [1] [µg/mL] | Kd [2] [nM] | Kd [3] [µg/mL] | EC50 [4] [µg/mL]
1 | B1 | 0.126 | 0.169 | – | –
2 | B2 | 0.123 | – | 0.184 | –
3 | B3 | – | – | 0.191 | –
4 | B4 | – | – | 0.18 | –
5 | B5 | 0.153 | – | 0.206 | –
6 | B6 | 0.149 | – | 0.154 | –
7 | B7 | 0.213 | – | 0.225 | –
8 | B8 | 0.168 | – | 0.194 | –
9 | B9 | – | – | – | 1 to 2
